Source: US20240199757A1 (UNIVERSITY OF CHICAGO, published 2024)
Positions count from the first letter of the chain named.

T1: human NT5E expressed on MDA-MB-231 cells (human, UniProt P21589 27-549)
T1 construct: whole, on cells; also called NT5E-expressing MDA-MB-231 cells; CD73
T1 sequence (looked up): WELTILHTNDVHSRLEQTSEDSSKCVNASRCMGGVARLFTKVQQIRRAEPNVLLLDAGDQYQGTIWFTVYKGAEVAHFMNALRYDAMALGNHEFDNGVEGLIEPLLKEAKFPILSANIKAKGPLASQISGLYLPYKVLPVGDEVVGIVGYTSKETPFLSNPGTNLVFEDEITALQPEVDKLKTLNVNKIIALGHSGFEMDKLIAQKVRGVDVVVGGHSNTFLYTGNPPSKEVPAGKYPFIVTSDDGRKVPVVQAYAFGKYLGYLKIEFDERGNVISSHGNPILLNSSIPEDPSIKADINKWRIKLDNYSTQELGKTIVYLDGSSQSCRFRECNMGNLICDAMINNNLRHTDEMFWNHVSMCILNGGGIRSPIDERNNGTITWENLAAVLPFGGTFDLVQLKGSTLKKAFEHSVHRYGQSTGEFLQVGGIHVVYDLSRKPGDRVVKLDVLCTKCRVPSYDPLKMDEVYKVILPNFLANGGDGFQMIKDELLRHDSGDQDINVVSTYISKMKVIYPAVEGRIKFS

T2: Full-length human NT5E (recombinant, in-house) (human, UniProt P21589 27-549)
T2 construct: also called hNT5E; hNT5EWT
T2 sequence: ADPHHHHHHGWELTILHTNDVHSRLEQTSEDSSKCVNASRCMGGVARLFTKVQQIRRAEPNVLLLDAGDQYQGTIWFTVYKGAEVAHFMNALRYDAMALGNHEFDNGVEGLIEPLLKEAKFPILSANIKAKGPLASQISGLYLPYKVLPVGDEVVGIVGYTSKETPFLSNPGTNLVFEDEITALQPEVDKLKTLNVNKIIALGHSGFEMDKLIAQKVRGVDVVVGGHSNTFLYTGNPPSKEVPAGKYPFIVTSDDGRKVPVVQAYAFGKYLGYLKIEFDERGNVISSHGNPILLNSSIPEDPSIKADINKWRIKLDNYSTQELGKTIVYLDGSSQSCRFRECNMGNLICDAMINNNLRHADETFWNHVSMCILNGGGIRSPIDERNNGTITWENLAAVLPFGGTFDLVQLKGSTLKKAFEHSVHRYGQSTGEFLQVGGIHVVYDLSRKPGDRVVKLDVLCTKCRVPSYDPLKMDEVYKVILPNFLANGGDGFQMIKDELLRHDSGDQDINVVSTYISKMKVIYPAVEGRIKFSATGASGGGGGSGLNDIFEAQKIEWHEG

T3: Full-length cynomolgus NT5E (recombinant) (cynomolgus, UniProt P21589 27-549 (human entry))
T3 construct: also called cNT5E; cyno NT5E
T3 chain: T2 sequence with M209T, T363M, V476I

B1: 1789 Fab (Fab, V domains shown)
VH: EVQLVESGGGLVQPGGSLRLSCAASGFNVSYSSIHWVRQAPGKGLEWVASISSSSGYTYYADSVKGRFTISADTSKNTAYLQMNSLRAEDTAVYYCARNYWGWYPFYYFAFDYWGQGTLVTV
VL: DIQMTQSPSSLSASVGDRVTITCRASQSVSSAVAWYQQKPGKAPKLLIYSASSLYSGVPSRFSGSRSGTDFTLTISSLQPEDFATYYCQQGWDYPITFGQGTKVEIKR
B2: 1789 IgG (antibody, V domains shown)
VH: EVQLVESGGGLVQPGGSLRLSCAASGFNVSYSSIHWVRQAPGKGLEWVASISSSSGYTYYADSVKGRFTISADTSKNTAYLQMNSLRAEDTAVYYCARNYWGWYPFYYFAFDYWGQGTLVTVSS
VL: B1 VL

Experiments:
[1] = biological target: T1, human NT5E expressed on MDA-MB-231 cells; experiment: flow cytometry on MDA-MB-231 cells, 1 mM ATP
Description: Flow cytometry analysis of antibodies binding to human NT5E expressed on MDA-MB-231 cells in ATP-free condition (black) or in 1 mM ATP (red). Top panel: (left) 1780 Fab and (right) 1780 IgG titrations. […] Binding was measured at the indicated range of antibody concentrations and is expressed as mean±st. dev of median fluorescence intensity (MFI) of 1-2 replicates. Data were analyzed using OriginLab, and EC₅₀ values are shown next to the fitted curves.
Human MDA-MB-231 cells and murine 4T1 cells were grown to 90% confluency, detached with 5 mM EDTA for 15 min at 37° C. and then resuspended in 37° C. lx PBS (#10010031, Gibco) supplemented with 1% FBS and 1OpM ZnCl2. Separate working buffers (WB) of PBS and 1% FBS with or without fixed nucleotide concentrations were used throughout all washing steps to maintain constant condition. In 96-well plates (#3799, Costar), 0.2×10⁶ cells were added per well. The plates were spun at 500×g for 5 min and the supernatant was removed. Anti-NT5E antibodies were diluted to the desired concentration in 100 μL WB, added to the cells and the plates were incubated for 20 min at 37° C. Plates were spun and cells were washed twice with WB then spun a second time. Cells were stained with 100 μL of secondary antibody (Alexa Fluor 647 AffiniPure Goat Anti-Human IgG, F(ab′)2 fragment specific, #109-605-006, Jackson, 1:200) dilution and plates were incubated for 20 min at 37° C. Cells were washed twice with WB then fixed on ice with WB supplemented with 0.5% PFA. Fixing solution was removed by centrifugation and cells were resuspended in cold 1× PBS. Samples were analyzed by flow cytometry using CytoFLEX (Beckman Coulter) and mean fluorescence intensity (MFI) data was extracted using FlowJo software. Resulting binding data was plotted using OriginLab.

[2] = biological target: T2, Full-length human NT5E (recombinant, …); experiment: ELISA, biotinylated NT5E on neutravidin plate, 1 mM ATP
Description: (§1) (B) Protein ELISA: Protein-based multipoint ELISA was performed to estimate the affinity of the generated Fabs and IgGs to NT5E. The binding of the Fabs and IgGs to the closed form of NT5E were determined in ELISA buffer (HBST) supplemented with 10 μM zinc chloride and 1 mM ATP while the binding of the same to open form of NT5E were determined in ELISA buffer (HBST) without any cofactors. A fixed concentration of the immobilized target (50 nM) on ELISA plate was incubated with 3-fold serial dilutions of the purified Fabs and IgGs starting from 3 μM and 1 μM respectively for 15 min. The plates were washed and were subsequently incubated with a secondary HRP-conjugated anti-protein L monoclonal antibody (#32420, ThermoFisher, 1:6000 dilution). As with phage ELISA, the plates were again washed, developed with TMB substrate and quenched with 1.0 M HCl, and absorbance (Abs450) was determined. To determine the affinity (EC50), the data were fitted with a non-linear, 4-parameter logistic curve in OriginLab.

[3] = biological target: T3, Full-length cynomolgus NT5E …; experiment: as above
Description: as §1

| Binder | EC50 [1] [nM] | EC50 [2] [nM] | EC50 [3] [nM] |
| --- | --- | --- | --- |
| B1 | 53 | 37 | 28 |
| B2 | 9.4 | 0.86 | 0.57 |
